Data: the DeepSol protein solubility set

Test: soluble on expression in E. coli; label from the status in PepcDB or PDB records

Row | Sequence | soluble on expression in E. coli
1 | EVQLLESGGGLVQPGGSLRLSAAASGFTFSTFSMNWVRQAPGKGLEWVSYISRTSKTIYYADSVKGRFTISRDNSKNTLYLQMNSLRAEDTAVYYVARGRFFDYWGQGTLVTVS | soluble
2 | MGSDKIHHHHHHLIPVLDTDAWVEKLLSTRRSAEGKILAFYEHRMEAICRDPRLLLMPADDHLAHRGDGVFESMKFEGRRLYQLDAHLERMERSARGIYLTPPCTQSVLRDIVLQVARAADTPDGCIRILLGRGPGGFGIDPAECPVPSLYVVAYSLTPKPEEWYEKGVTAFRTSIPAKQGYLATIKNANYIPNVLMKLEARSRGCDIPVSFDENDFIAEGPTENLCLVDADGTLVVPEFTNALSGTTIMRVIDLVRDEMNVAFRKVREDELYRAAEVMVLGTTTECVSVVSFEGQPVGGGRPGPVARRFRELLRRDLAENGISF | not soluble
3 | MSLDLKITNGFYDPSHLSYEVVERKGLGHPDTLADGIAEQIEIDYSLYCLDKFGVIPHHNFDKIIIRGGHSVQDFGGSDFIEPIKIIFLGRASKKCFNSSIPLFKIQKKAATKYLNRILPNLDVENYVEFETLTSDFTTKTNWFSPEAIEDLPEYLDVPKANDTATMISYWPLTISEELALMIEGYFYKLDKNELPTPRFTKMGGDIKVMVVRNDLEYSIRINFPLISKFFNNDIESQLYVDKHVEKIKKYIEQKYKNISFSIDYHYYLTTTGSCIDFGEEGAVGRGNKTHGIISSFRPNTMEAPAGKNCTYFVGKVWGFLSDTIAKEIYEAFNTPCQIIMQLNIGSKLYRPTHLFIQTEESVDQERVLEIVNRHLNNGKQNTNLILSTQHFIPKTNVYDGEGHHHHHH | soluble
4 | MAPKTGETVVEKMEVDEAKQDVPATEPAKDLNAIAVENIKEQLAALDKGEEHLITRVLQVLPKTRKQINDNVLYKLVSSHLSSDAQFAEGMLKYLHYTPAADTEVQPMDTSNVKTKSPKKGVKPVFASPESDCYLRLLVLLHLYAQKKNTEALALGENQLTSIYNFDRRTLDGLAAKTLYFLCVIYEREGRLFDHQGFLNSRLRTATLRNFSESQAVLICWLLRCYLINRQYQSAAHLVSKVAFPDNASNNDLARYMYYQGRIKALQLDYNSAAGYFLQAQRKAPQEGAIGFKQAVQKWVVVIGLLQGEIPDRSVFRQPIYRKCLAHYLDLSRGVRDGDVARFNHNLEQFKTQFEADDTLTLIVRLRQNVIKTAIKQISLAYSRIYIKDIAKKLYITNETETEYIVAKAIADGAIDAVITSDVRDGPRYMQSSETADIYRTSEPQAHFDTRIRYCLELHNQAVKALRYPPKKKIAVETIEQAREREQQELEFAKELADEDDDDF | not soluble
5 | MSLALRFITAEEAAEFVHHNDNVGFSGFTPAGNPKVVPAAIAKRAIAAHEKGNPFKIGMFTGASTGARLDGVLAQADAVKFRTPYQSNKDLRNLINNGSTSYFDLHLSTLAQDLRYGFYGKVDVAIIEVADVTEDGKILPTTGVGILPTICRLADRIIVELNDKHPKEIMGMHDLCEPLDPPARRELPVYTPSDRIGKPYVQVDPAKIVGVVRTSEPNDESDFAPLDPVTQAIGDNVAAFLVSEMKAGRIPKDFLPLQSGVGNVANAVLGALGDNPDIPAFNMYTEVIQDAVIALMKKGRIKFASGCSLSVSRSVIQDIYANLDFFKDKILLRPQEYSNNPEIVRRLGVITINTALEADIFGNINSTHVSGTRMMNGIGGSGDFTRNSYVSIFTTPSVMKDGKISSFVPMVAHHDHSEHSVKVIISEWGVADLRGKNPRERAHEIIDKCVHPDYRPLLRQYLELGVKGQTPQNLDCCFAFHQELAKSGDMRNVRWEDYMKEGHHHHHH | soluble
6 | MDNARIDLRSKYYVKPKADHPWLTRRTQSHQQVKPPKLPKKKPDPDKKD | not soluble
7 | MAHHHHHHMIGELVLLIGDFHSPMRNLGLPDCFKDLLKTDKIKHVLCTGNVGCRENLELLKNIADSVHITKGDMDDEYDFPEDTSLTIGDFKISLIHGHQIIPWGDTNALLQWQKKYDSDIVISGHTHKNSIVRYEGKYFINPGSATGAFQPWLSQPTPSFILMAVAKSSIVVYVYEEKNGKTNVEMSEL | soluble
8 | MGSDKIHHHHHHMNKFNDIIDECDLSFSDWGKNYPRWSSLDAAWWKTFGGDNYLNKYKDGYIVFHREKIKEIARQYKIPSILLASVAHAEAGGMVDYFKYPTLFGRQVVHSYSGWPGKEKILPSPEKTSIGIIAMQIRVVAEIFGKNPSALRNAEATYISICLNKDNFNLTMVARHLYELINYDYPGTDTLNLTDEQFILAGARYNRGVQRSRSDLIRSINAEKDLIEVRDWTSYGRSMLNHREKITKLLYEVTTPPKNSDSN | not soluble
9 | MSTLEIKNLHAQVVPADESAAPKPILKGVNLTIKSGETHAIMGPNGSGKSTLAYTLSGHPRYEVTDGEVLLDGENILDMDIDERARAGLFLAMQYPTEIPGVSMANFLRSAATAVRGEAPKLREWVKEVKQAQQDLKIDKAFNERSVNEGFSGGEKKRHEVLQLDLLQPKFAVMDETDSGLDVDALRIVSEGINRYQEKSNGGILMITHYKRILNYVQPDFVHVFANGQIITSGGPELADDLEANGYDRFLA | not soluble
10 | VDEKALKHITEMGFSKEASRQALMDNGNNLEAALNVLLTSNKQKPVMGPP | soluble
11 | MSLGQSKVVYLNTHSTSSAGVETLNELCRLAEPGLETMLRQALDQVDDALFDRAERAANNADQALFFATMRQVRMSRRMVVQTFTQEMESAFSRLTQPHSSQTQEPAATAREDYSLELMDETVVEERVAAETVVGKLRTRSVFPLAQLQSRLDYLVVERKVDERNNPLDPRQVVDAFAVAMERLNIEIQPKLIIFKLFEKQALRQLPALYEAANRLLIDAGIMPKLRATGEPLVANEDRVQAPESGHQTSVDSEADTLTGNGSATLELLQGLLAQARGGNQPVPSTARCAGGASHSDLVQALSALQQQPRFANNETGGAQPFAAEELKALLGSALFVAPGGLPQPIERAADDTIDIVSMLFDIILDDSRLAPSIKAVIARLQIPVLKVAMLDRSFFNSRQHPARALINELAHAAMGWVEPENPSADPLYRKMNEVMNRILEGFEEDIVLFEQVLQDFRLFLEQERERAQTVEARTCQAAEGKAKVEDARERVQAEIERRLRGGSVPSVVHQILEGPWFKVLFITCVKDGPQGAVWESQLELMDRLIWSVQPNADPERRQDVLARIPALLNDLREGLNAILYNPFEMTRLFEELEAEHIRCLSAPPADLSDNTVNVEQGSEDESAFAQEGSSYDCDEPSVAAEPPQLTEEQCLREECLQRLVRVDLGTWFEFSTDAGRQLRAKLSARLNGGRRLIFVNRAGFKLADKKTEEVAADLSSGKAFILDHNMLFDKALEQVITNLRDLRVEQAEGHHHHHH | not soluble
12 | GERQVYRKIRDRASYAFALISVAAVVRMEEGRIATARLAFGGLAHKPWRDPEVEACLEGETPSDDLFDRAADRLLQSARGQGENDFKIPLTRRALTAALREATG | not soluble
13 | MTYILKTNQLTKVFKGKEVISSVNMHVKKGEIYGFLGPNGAGKTTIMKMITNLIKPTSGEIEIFGEKLTDTSYEVLKRMGTIIEYPIFYDKLTAKENLELHCEYMGYYDKNEIDHALHLVKLQGIDNKKVKDFSLGMKQRLGIARAIVTKPELLILDEPINGLDPIGIKELRDLFKMLCKEYGITLLVSSHILGEMELMADTIGVIQNGKLIKEVSMKSINGKQTEYIEITVPDVKRAAYILEDKLGIKNYKIMSGNMIRVYDTAVSQQAISKALIMNDVEIESINKKHSSLEEYFLNVMDGEGIHA | not soluble
14 | MGSDKIHHHHHHMNVTLRQLQAFIAVAELGRFHLAADHLGLTQSAISILIKDLEVALKHRLFDRHTRMVSLTTAGAEFLPQARKIMSDLEIAVANVHELASLQRGRVTIAAAIVLAATLLPPVIARFVKRYPDISVQVRDMPEEEIRSALKRNEADLGIGTVSADDPEIQASVLMRDQLTLICRSDHRFAKARQVSWASLAGEGVIGLAKDNPLRGLVDRALIASGVEVKTRYEVRFSTTAISMVAEGLGIAILPENSRQLTTNVDVRIVELVDPVISRNISILQYRQPMLSPAAAKMKEFLMGASRKLS | not soluble
15 | MSLKDEYTTSFGIRTIEVIPNKGFFLNGKRTSFKGVCNHHDLGPLGGAVNDAAIRRQIRILKDMGCNAIRTSHNMPAPELIRACDEMGMMVMAESFDEWKAMKVKNGYRHVFDEWAVKDLTNLLRHYRNNPSVVMWCIGNEVPEQWDGNKGPKMSYFLQELCHREDPTRPVTQGMDAPDAVVNNNMAAVMDIAGFNYRPHKYQENYKKLPQQIVLGSETASTVSSRGVYKFPVTRQWMKKYDDHQSSSYDVESCSWSNLPEDDFIQHEDLPYCIGEFVWTGFDYLGEPTPYYTDWPSHSSLFGIIDLAGLPKDRYYLYRSHWNKEQETLHILPHWNWEGREGEITPVFVYTNYPSAELFINGKSQGKRTKDLSVTIDNSADSVSIMNLKRQSRYRLMWMDTKYEPGTVKVVAYDADGKAVAEKELHTAGKPDHIELVADRNVIKADGKDLSFVTVRVVDRDGNLCPDASHEISFKVKGEGSYRAGANGNAASLESFQHPKMKVFSGMMTAIVSSTEQPGKITLEATGKGLKKGALIIESCQEAKEGHHHHHH | not soluble
16 | MGSDKIHHHHHHMKIAYYLPSLQAPGGIERIVTFKANYFAEHFEGYDITIITSEQMGKAPHFPLSPKVKHIDLGVSFDLPYSQSIVSKVLKYPFRYYRFKQRLSNLLNELKPDITISTMRRELNFITKLKDGSLKIGEFHVSRYAYGAEALKRKSPIVNMIKKRWANRFVKNLSKLSRVIILTSEGAKDWPELTNISIIPNPISTPVEGKQTDILSHNAIAVGRYAPQKGFDMLIPAWSIVAQRHPDWKLHIYGEGDLKEKFTKLIDELQLNNNCLLHHTVSNIAEKYCMSSIFVLSSRYEGFGLVLAEAMSCGIPCVSFDCPHGPSNIIKDHEDGLLVEKENIKELADKICYLIENENVRIKMGHKARENVKRFLPENVMPQWKNLFESLTYSSK | not soluble
17 | MSKRCASDRDDKDSEPVKKPRFSIANILDEVEDEEDVEVDVEDVDDVDLSSIPSKSPERSRGRPKIGLKMKEGNLPIECKLEGSELWAKFFDLGTEMIITKSGRRMFPTVKVSFTNVILDALYYIFLDVVPVDSKRYRYIYNKSAWLTAGKAEPVPKNRYYLHPDSPFTGDQLLKHVISFEKTKLTNNEVDKTGHLILNSMHKYQPRIHIVQRQKANPLDPNKVVMSEEKHCTYTFPETQFMAVTAYQNQLITKLKIEKNPFAKGFRDPTGRSPDEMERSPGDMMLSNFYHSSALQQAMFQQCLSKTLQLNPSIMMLYQNVFPTGNSLPAAPTVPGNPAEISIKSE | soluble
18 | MGSDKIHHHHHHMKIAVLSGKGGTGKTLVAVNLAAAAQRSTYIDCDVEEPNGHLFFKPEILQEEEITVKIPRVEDTLCQGCRRCVDFCQFNALAYIKEKLLVFEDVCHSCGGCILLCPEKALTEQEKGIGKVQKGLSDQVRVYTGVLNIGEVSGVPIIKKLLNENKSDKNEPESDQLTFIDCPPGSACSVMESIKDADYCLLVAEPTLFGVHNLNMVHELVKIFNKPCGVVLNKSLEGENPAETFCLEKNIKILSRLPFDHELGRLNSNAEIAVRKSEPYKALFSALLETVTKEVQHETAAYS | not soluble
19 | MGSDKIHHHHHHMFTGTFTLRSRKSRHDHSSGNVRVCENEDMFESVGTWWRNLTHRHGDDRNNDDTLDDATNTLLSILPLASIVVDEHDEVIRAHPDAYALGVVRDDAIADDTVASAVHEVRAHGGKKQFSLTTTTLHEPKKAPKAGKPTMREVAKQALIGQSPDKPVTTVSRPNWLKVIVGRLNERFVVVLVSDVSETVRFSQIRDSFITNVSEQLLKPTQSLEELADALEHDSDNKAAIEGNTVKLRQSCARMEHMVSDLLLLIKAQEPILPTASNRINVMEQVKTVVDAHRDMAQRRGIDIEIDGDESLDINGEGEQIQAAVAKLLENAIAYSPDGKGITVSVKPNEDGTKVLLSVLDRGCGIAQKEQSRIFERFYRGGNQNGHSEEGIGLGLAIVKHVALTHHGSASVWSAPGQGSTFTLGLPVARN | not soluble
